Values quoted from earlier work, collected in article PMC130215.

Molecular target: LIR-1 (ILT2) (Homo sapiens) (UniProt Q8NHL6)
Chain of UniProt Q8NHL6 (Q8NHL6 24-461): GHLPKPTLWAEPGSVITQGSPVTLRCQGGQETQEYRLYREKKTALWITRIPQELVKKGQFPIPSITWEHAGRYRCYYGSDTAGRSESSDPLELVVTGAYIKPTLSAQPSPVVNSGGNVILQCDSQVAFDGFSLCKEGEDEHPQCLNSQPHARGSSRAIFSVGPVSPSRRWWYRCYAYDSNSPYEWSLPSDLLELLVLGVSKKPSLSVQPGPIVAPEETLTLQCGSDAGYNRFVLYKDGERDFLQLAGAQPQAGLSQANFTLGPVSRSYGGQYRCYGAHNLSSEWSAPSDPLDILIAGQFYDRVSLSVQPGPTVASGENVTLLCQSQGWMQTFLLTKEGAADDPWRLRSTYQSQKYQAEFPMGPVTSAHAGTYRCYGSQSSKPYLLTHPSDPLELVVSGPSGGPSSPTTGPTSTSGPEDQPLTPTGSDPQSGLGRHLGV

Q: Which Kd does the source give for UL18 (from UniProt P08560) here?
A: 2 nM
